Data reported in article doi:10.1101/2020.05.06.080432.

Assays:
Test in all cases: MST
[1] = target: His6-GlnA1 (Methanosarcina mazei) (UniProt Q8PY99)
[2] = target: His6-GlnK1 (Methanosarcina mazei) (UniProt Q8PYW7)
[3] = target: synthesized sP26 (Davids Biotechnologie), nt-647-NHS-labeled (Methanosarcina mazei)

**Q.** Which Kd [1] does the source give for His6-sP26 (natural protein) here?
**A.** 45000 nM

**Q.** And the Kd [2]?
**A.** 1400 nM

B1: His6-GlnK1 (natural protein)
chain: MVAMKYVIAMIRPERLDAVKRELQKIEVSRLTVSSVSGYGAQKGYMEIYRAMEYDANLLEKIKIEIAVNDEFLEPTIEAIKTGAKGSDGYVGSGKIFVLPLENVIRIRTNETGPEAI
**Q.** How did the Kd [3] turn out when B1 was run?
**A.** 47 nM

B2: His6-GlnA1 (enzyme)
chain: MVQMKKCTTKEDVLEAVKERDVKFIRTQFTDTLGIIKSWAIPAEQLEEAFENGVMFDGSSIQGFTRIEESDMKLALDPSTFRILPWRPATGAVARILGDVYLPDGNPFKGDPRYVLKTAIKEAEKMGFSMNVGPELEFFLFKLDANGNPTTELTDQGGYFDFAPLDRAQDVRRDIDYALEHMGFQIEASHHEVAPSQHEIDFRFGDVLCTADNVVTFKYVVKSIAYHKGYYASFMPKPLFGVNGSGMHSNQSLFKDGKNVFYDPDTPTKLSQDAMYYIGGLLKHIREFTAVTNPVVNSYKRLVPGYEAPVYISWSAQNRSSLIRIPATRGNGTRIELRCPDPACNPYLAFALMLRAGLEGIKNKIDPGEPTNVNIFHLSDKEREERGIRSLPADLKEAIDEMKGSKFVKEALGEHVFSHYLCAKEMEWDEYKAVVHPWELSRYLSML
**Q.** For B2, which Kd [3] is on record?
**A.** 76 nM
